Measured values taken from patent publication US20230138315A1 (JIANGSU HENGRUI MEDICINE, published 2023).

Key:
Assay in all cases: HTRF; biotin-labelled antigen with Streptavidin-Tb cryptate
[1] = target: T1, cynomolgus monkey ANGPTL3(17-460)-His (cynomolgus monkey, UniProt Q9Y5C1 17-460 (human entry), biotin-labelled in the ELISA and HTRF assays (sites not given))
T1 construct: also called full-length cynomolgus monkey ANGPTL3; Cyno ANGPTL3
T1 chain: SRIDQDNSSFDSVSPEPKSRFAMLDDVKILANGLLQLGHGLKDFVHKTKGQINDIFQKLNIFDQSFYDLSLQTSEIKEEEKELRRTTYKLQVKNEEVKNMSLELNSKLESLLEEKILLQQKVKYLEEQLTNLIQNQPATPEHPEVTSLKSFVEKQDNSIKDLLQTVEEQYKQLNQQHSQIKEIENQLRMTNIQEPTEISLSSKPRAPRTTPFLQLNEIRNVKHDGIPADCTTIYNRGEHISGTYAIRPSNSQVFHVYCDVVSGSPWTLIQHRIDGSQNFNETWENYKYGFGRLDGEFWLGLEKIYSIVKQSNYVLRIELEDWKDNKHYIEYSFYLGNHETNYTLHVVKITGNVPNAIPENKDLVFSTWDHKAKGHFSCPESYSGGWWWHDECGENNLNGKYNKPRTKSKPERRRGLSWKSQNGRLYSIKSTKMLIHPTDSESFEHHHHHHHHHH

[2] = target: T2, mouse ANGPTL3(17-455)-His (mouse, UniProt Q9R182 17-455, biotin-labelled in the ELISA and HTRF assays (sites not given))
T2 construct: also called full-length mouse ANGPTL3
T2 sequence: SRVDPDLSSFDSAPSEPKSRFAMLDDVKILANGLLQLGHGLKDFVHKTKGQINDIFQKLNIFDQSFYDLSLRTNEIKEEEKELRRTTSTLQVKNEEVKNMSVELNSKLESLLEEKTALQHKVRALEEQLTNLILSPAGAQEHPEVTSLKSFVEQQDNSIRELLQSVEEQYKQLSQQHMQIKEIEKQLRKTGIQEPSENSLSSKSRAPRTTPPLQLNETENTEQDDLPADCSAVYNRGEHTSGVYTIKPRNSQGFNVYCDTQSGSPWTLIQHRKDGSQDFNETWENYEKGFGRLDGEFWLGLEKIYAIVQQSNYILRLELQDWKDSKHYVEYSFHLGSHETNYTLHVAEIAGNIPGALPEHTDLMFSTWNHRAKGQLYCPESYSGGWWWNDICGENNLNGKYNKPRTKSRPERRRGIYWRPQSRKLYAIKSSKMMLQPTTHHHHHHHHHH

[3] = target: T3, human-ANGPTL3(17-460)-His (human, UniProt Q9Y5C1 17-460, biotin-labelled (labelling kit, sites not stated))
T3 construct: also called full-length human ANGPTL3
T3 sequence: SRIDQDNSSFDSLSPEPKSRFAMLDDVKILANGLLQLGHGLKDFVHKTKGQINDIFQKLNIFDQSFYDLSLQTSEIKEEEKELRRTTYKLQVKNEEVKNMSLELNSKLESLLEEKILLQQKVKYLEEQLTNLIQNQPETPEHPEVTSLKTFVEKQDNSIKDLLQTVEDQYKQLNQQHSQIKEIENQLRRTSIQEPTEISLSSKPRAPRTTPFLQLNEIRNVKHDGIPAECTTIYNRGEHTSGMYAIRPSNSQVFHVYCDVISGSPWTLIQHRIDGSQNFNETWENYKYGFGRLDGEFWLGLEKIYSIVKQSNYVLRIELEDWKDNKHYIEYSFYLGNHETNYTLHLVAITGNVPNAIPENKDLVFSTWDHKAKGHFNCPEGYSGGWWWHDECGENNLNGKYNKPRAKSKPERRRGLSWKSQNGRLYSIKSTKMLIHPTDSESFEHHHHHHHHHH

EC50 [1]: 360 pM | EC50 [2]: 321 pM | EC50 [3]: 277 pM
B1: P8BG (antibody, human IgG4 S228P, kappa, V domains shown)
VH: QVQLVQSGAEVKKPGASVKVSCKASGYTFTSYDINWVRQAPGQGLEWVGLINPREDSTSYAQKFQGRVTMTRDTSTSTMYMELSSLRSEDTAVYFCARDLGSIREVLYYGMDVWGQGTTVTVSS
VL: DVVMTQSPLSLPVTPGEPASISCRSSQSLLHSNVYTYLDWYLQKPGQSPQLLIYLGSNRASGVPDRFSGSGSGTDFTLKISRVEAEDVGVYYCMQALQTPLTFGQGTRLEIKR
notes: also called anti-ANGPTL3 antibody P8BG; P8B (variable regions)
